The text below walks through data of the supplement of paper PMC12042874.

± gives the uncertainty stated by the source.

The series is described as follows: amyloid nucleation score (Sup35N fusion, yeast selection) (log enrichment); library NNK1; higher = more nucleation; inactive = no reads after selection. An outline of the steps: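 Nucleation score: DiMSum log enrichment of output over input reads, centred on the mode score of non-aggregating sequences. Only sequences with at least 100 input reads were kept. Reads came from Illumina sequencing of plasmid inserts before and after 7 days of growth at 30°C without adenine and uracil, in psi-negative yeast expressing Sup35N fused to peptides of 20 random codons after 24 hours of induction with 100 μM copper sulfate.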

For IIISMFRGAGRIYSF, the amyloid nucleation score came to 0.336 ± 0.64.

FYRASKDCLAKVRRVGC returned an amyloid nucleation score of 0.482 ± 0.59.

QVWITWVGRKLPHRGKTVGN: the amyloid nucleation score was -0.379 ± 0.53.

YIIWVYCVRMNSLHELLAMS: the amyloid nucleation score turned out to be 0.684 ± 0.8.

SYLFRSRRIRYFRFMHN registered an amyloid nucleation score of 3.17 ± 0.12.

Turning to HSAFSWNYRDSFVEGCSSHG, the amyloid nucleation score stood at 0.018 ± 0.3.

For the substance AEKSFWHSSNPFIALPRTHR, the amyloid nucleation score was -1 ± 0.93.

The substance LVHPSWN displayed an amyloid nucleation score of -0.311 ± 0.77.

LRVAFIKLKHKKFNDMYRSM yielded an amyloid nucleation score of 0.156 ± 0.26.

On to RVTSNEKRNYRVSRICPHLT, for which the amyloid nucleation score was -0.271 ± 1.

Consider IYKVEFLTCFLDEGGWSPKV, for which the amyloid nucleation score is -0.692 ± 0.95.

As for FFNYRVMKRHYSVYLCVGSM, the amyloid nucleation score is 1.18 ± 0.14.

For the substance HPSTRCAVANDNIWPLSGPR, the amyloid nucleation score is 0.628 ± 0.75.

As for MVETVYMVEALCRGPEPVVV, the amyloid nucleation score was -2.09 ± 2.4.

Substance NSFRTGVLYSMESEGMAWWC registered an amyloid nucleation score of -0.044 ± 0.76.

Take YLWLVWEDV: the amyloid nucleation score stood at 0.721 ± 0.69.

REEYYGIPSEINGHTTLVYS returned an amyloid nucleation score of 1.03 ± 0.72.

Turning to TGLDNHNICNRDTR, the amyloid nucleation score is -0.034 ± 0.62.

Substance GLVHYMLLDPLAVNLSGCND showed an amyloid nucleation score of -0.301 ± 0.3.

With RVGYH, the amyloid nucleation score was -0.135 ± 0.35.

For CTIILL, the amyloid nucleation score was determined as 2.78 ± 0.14.

In turn, SCGLYFAGVEVGGAVSLCKG returned an amyloid nucleation score of 0 ± 0.48.

Substance ASIYCWLLNRHLDDDFLWLS had an amyloid nucleation score of -0.702 ± 1.9.

HEGGQWLRKLTGPLGLRFMR registered an amyloid nucleation score of 0.216 ± 0.48.

In turn, NDYEELIMYFKEDVF had an amyloid nucleation score of 1.76 ± 0.5.

On to LFEGEIIMK, for which the amyloid nucleation score entry is “inactive”.

Turning to RFNWSSDLCSFKTPLSKHVG, the amyloid nucleation score was 0.258 ± 0.41.

In the case of VYWNV, the amyloid nucleation score is 1.1 ± 0.57.

Consider VTSLYQDVT, for which the amyloid nucleation score is -2.31 ± 2.4.

As to VYTWPTICNCQRL, the amyloid nucleation score was 0.128 ± 0.36.

With MSDSG, the amyloid nucleation score was -0.576 ± 0.81.

In the case of YNVQVLQVGGRLCRNKCSSC, the amyloid nucleation score was 7.825 ± 0.061.

With IQYELMRMACSRNFIIAEFF, the amyloid nucleation score amounted to 0.2 ± 0.72.

Substance LCLLCNRYRWTN showed an amyloid nucleation score of 7.041 ± 0.048.

Substance SSNYMFVCRSKDLEVLLVGY returned an amyloid nucleation score of 0.398 ± 0.51.

On to NIITVGNGSILMMVWSSEVN, for which the amyloid nucleation score worked out at 5.63 ± 0.08.

The substance NRFFSRVKKYPYTLSYPGFC returned an amyloid nucleation score of 0.065 ± 0.29.

Take GTGLSENRLSKYCWALLWSY: the amyloid nucleation score result was “inactive”.

The substance HYVVVKRRPMDMSGLVGWDA gave an amyloid nucleation score of 0.036 ± 0.43.

In the case of TCNGCGGHRMFWYK, the amyloid nucleation score was 0.099 ± 0.55.

Take HLAINNADTALGSYKGQVSV: the amyloid nucleation score came out at 2.36 ± 0.11.

In turn, KCIWFMHDFCYMVLMR came in with an amyloid nucleation score of -0.164 ± 0.72.

PWGTCQQYRYTFWPVSAC displayed an amyloid nucleation score of -0.412 ± 0.92.

Consider FRVMDRVGSCLIVELTPG, for which the amyloid nucleation score worked out at 0.084 ± 0.55.

For NIAYQTDSGVRLRFVTDSRG, the amyloid nucleation score entry was “inactive”.

As for GVTWLSEISV, the amyloid nucleation score amounted to 0.885 ± 0.73.

ALSLVISCSGSWRKGRRFLS yielded an amyloid nucleation score of -0.53 ± 0.64.

RFSWPWTDYNMKNYA yielded an amyloid nucleation score of -0.119 ± 0.21.

For QNPNVDERNSTS, the amyloid nucleation score is 0.69 ± 0.52.

In the case of GFLCQSRVLAML, the amyloid nucleation score result was “inactive”.

For the substance WCVFSLLKCINSLAQHFKGS, the amyloid nucleation score entry is “inactive”.

As to TWRLDIFGGRRGRVASRKKW, the amyloid nucleation score is -0.076 ± 0.96.

RKRVCSGLRSFWSFFRCLRV had an amyloid nucleation score of -0.711 ± 2.1.

The substance NYSDLKRGHRLDSADGWDGI came in with an amyloid nucleation score of -0.613 ± 1.1.

IIGTPVPYLGVLKTFDIKYF showed an amyloid nucleation score of 0.125 ± 0.36.

With FTWERSH, the amyloid nucleation score was 0.655 ± 0.68.

Substance FIESVL came in with an amyloid nucleation score of 1.14 ± 0.67.

LYSIVVKYCYQYLSRACNYN showed an amyloid nucleation score of 0.637 ± 0.36.

Regarding RFFCSD, the amyloid nucleation score worked out at 0.641 ± 0.97.

As to MIHVFLGETYLVIFAVNFST, the amyloid nucleation score entry is “inactive”.

Consider FVTDMAYNMMESGLHT, for which the amyloid nucleation score was 6.44 ± 0.044.

For CHGKESRTVREVHDLLVYVS, the amyloid nucleation score is -0.408 ± 0.78.

TVMSNHGHLMKYYFVRLEGF yielded an amyloid nucleation score of 0.759 ± 0.62.

LFHQLRITSVLSYDDKCEAR: the amyloid nucleation score turned out to be 0.41 ± 0.2.

Substance GLKLKIREYSAFLCR displayed an amyloid nucleation score of -0.027 ± 0.36.

As for FFSKNT, the amyloid nucleation score was -0.041 ± 0.26.

In turn, LLFGTHVPIRRGRFDASMIY came in with an amyloid nucleation score of 0.58 ± 0.5.

The substance VLFGTCCRVILLWSV gave an amyloid nucleation score of 2.04 ± 0.43.

The substance NSYLCCIWK returned an amyloid nucleation score of 7.32 ± 0.08.

In turn, TVDVPLAASSNKYKFMFYCE registered an amyloid nucleation score of 3.92 ± 0.098.

Substance RFFRISWIFMSDSRPTRSDF came in with an amyloid nucleation score of 0.793 ± 0.84.

For the substance ARITMYLCFNRLLVGKVCSG, the amyloid nucleation score was -0.176 ± 1.1.

Turning to VWLMFLSWLV, the amyloid nucleation score was -0.639 ± 0.78.

On to EIFSNPSVYHESMK, for which the amyloid nucleation score was -0.072 ± 1.2.

YHKRVNFSVRAGCCC returned an amyloid nucleation score of 1.29 ± 0.43.

Take RYHSMYTNSNTRGFGSSLQL: the amyloid nucleation score result was “inactive”.

Substance ITREVSL gave an amyloid nucleation score of 1.36 ± 0.61.

For the substance SLCHAFYSVNNLAFCHSFTP, the amyloid nucleation score is 6.539 ± 0.061.

As for FNDQVQTWWLSYFEAPRYFK, the amyloid nucleation score is -1.29 ± 2.4.

On to VSRVDCDNFGLRSRVSAL, for which the amyloid nucleation score is 0.503 ± 0.37.

The substance FESTPLVGHTRASSRYCARF showed an amyloid nucleation score of -0.742 ± 2.1.

In the case of VEEAYER, the amyloid nucleation score was -0.485 ± 0.5.

In the case of LYRFWCYALST, the amyloid nucleation score result was “inactive”.

The substance WSDHDCIRPNFKYCMIRGRS showed an amyloid nucleation score of 0.531 ± 0.3.

In turn, TNSKSSSVGSKATQHN had an amyloid nucleation score of 0.077 ± 0.35.

Substance FHMARKQETTSI yielded an amyloid nucleation score of -0.18 ± 1.7.

In the case of AGNFVVPMDAE, the amyloid nucleation score amounted to 1.62 ± 0.41.

Turning to FMRYNCNCKWDYFFRDCPAG, the amyloid nucleation score is -0.357 ± 0.36.

As to SHATFRVWHTVVVAV, the amyloid nucleation score is -0.031 ± 0.34.

RFGYFFHLVGAGEGHGKGAC showed an amyloid nucleation score of 0.686 ± 0.59.

For WVLKL, the amyloid nucleation score came to 0.916 ± 0.54.

In turn, LVHKLFDIRRCPTAFSNWTM yielded an amyloid nucleation score of 1.29 ± 0.47.

NVAFYVTVV showed an amyloid nucleation score of -0.049 ± 0.26.

As to TRHWVIRQVSSTRDKYTKHA, the amyloid nucleation score came to 0.217 ± 0.66.

The substance SVLVLSRYFWNKLMRRWLVA yielded an amyloid nucleation score of -0.002 ± 1.2.

For the substance GTMKWALYSDYLSSTFTIYH, the amyloid nucleation score came out at 0.137 ± 0.26.

Substance LGTMSVYRRPRSMMGCRDQG came in with an amyloid nucleation score of 0.173 ± 0.26.

Substance LVIPVDRDANGLCYR gave an amyloid nucleation score of 0.46 ± 0.6.

For LEPNCVLSYTDSFVNQFVTL, the amyloid nucleation score worked out at 0.119 ± 0.3.

Consider WSYMVL, for which the amyloid nucleation score was -0.645 ± 0.81.

On to PVCVIRRGMAFSAFGWVPLE, for which the amyloid nucleation score was found to be 0.188 ± 0.7.

AYFRGRVNFSLTFLAYT came in with an amyloid nucleation score of -0.098 ± 0.56.

FVYCNAAIAISSFGTWEPKG had an amyloid nucleation score of 2.9 ± 0.1.

Regarding YSYSVAV, the amyloid nucleation score is 0.38 ± 0.51.

Regarding AFRTS, the amyloid nucleation score is -0.203 ± 0.43.

Turning to VGTFTGV, the amyloid nucleation score is -0.189 ± 0.43.

As to TLSLNGLNP, the amyloid nucleation score result is “inactive”.

For FFIDMCEL, the amyloid nucleation score was -0.897 ± 0.53.

TLRLKWSWEADCDI returned an amyloid nucleation score of 2.49 ± 0.12.

For the substance CASRNCGNYVK, the amyloid nucleation score entry was “inactive”.

As for ISTSLSTGLGKLRESWLTYH, the amyloid nucleation score result was “inactive”.

On to EVMDTLYLLLVCRYFAKCIT, for which the amyloid nucleation score entry was “inactive”.

In the case of IVTEVGGVVDEYARWPVGMT, the amyloid nucleation score was 8.737 ± 0.05.

The substance CYLSNLAMSHSCMHYALTAA showed an amyloid nucleation score of -0.713 ± 1.4.

Consider FSWCGWQRRSSVVAGSRILW, for which the amyloid nucleation score is -0.118 ± 1.1.

As for QRIGHLVLDSVGRTSCVMGA, the amyloid nucleation score is 0.386 ± 0.41.

In turn, EDSMNNL returned an amyloid nucleation score of -0.127 ± 0.84.

In turn, MAPEFCIEDKIRVVPFLIPI yielded an amyloid nucleation score of 0.197 ± 0.89.

With FRTSVDNLIGSENRISLRTS, the amyloid nucleation score came out at 0.541 ± 0.68.

Consider IHCDIALNRSTWLYFPFVLA, for which the amyloid nucleation score entry was “inactive”.

CIMMRHMVSYEADLRTMFLN yielded an amyloid nucleation score of 3.58 ± 0.18.

In turn, ASRAFSVVDYSGLLRGS yielded an amyloid nucleation score of 0.498 ± 0.61.

Substance FCCNWSCNCLRMG yielded an amyloid nucleation score of 7.799 ± 0.051.

With KSSTKGLISRGRFGYRVPSN, the amyloid nucleation score was -0.215 ± 1.7.

ARVPSKYRVEVHGRKKAWRG came in with an amyloid nucleation score of -0.814 ± 0.6.

In turn, GQDDYLWRRSGLDHNHSSSS displayed an amyloid nucleation score of -0.568 ± 0.37.

GLQKSVEGNYMTFLSFSLAM: the amyloid nucleation score was found to be 5.03 ± 0.052.

Substance QMTKNYEWDSTRIACVGLHR showed an amyloid nucleation score of 2.68 ± 0.11.

In turn, VKESRCCSYGTVRSISQGLG registered an amyloid nucleation score of -0.512 ± 0.89.

Turning to SETYSSVAWRTMVVAAELVD, the amyloid nucleation score turned out to be 0.822 ± 0.95.

RWSPV: the amyloid nucleation score was found to be 1.47 ± 0.54.

SAVQFG returned an amyloid nucleation score of -0.539 ± 0.54.

Take GRTYDDYGHVIYRSWLPSLH: the amyloid nucleation score is -0.274 ± 1.4.

YAQPIFKLCRTG: the amyloid nucleation score is -0.921 ± 2.4.

Regarding VEGRVSEFGRLHMSCYTGLR, the amyloid nucleation score was -0.076 ± 0.48.

Consider TVLIILRALLNSSPKTFD, for which the amyloid nucleation score came to 0.387 ± 0.22.

Substance KRWYTCYVYVFRICMRVLCR registered an amyloid nucleation score of 0.731 ± 0.38.

On to GNGVLAVTVSFAGTSLSLRF, for which the amyloid nucleation score is -0.047 ± 1.4.

YPTSCVYMCQQAKPFLVLIL yielded an amyloid nucleation score of -0.655 ± 0.6.

TVKDNHVLEEFVTFYVVYKS displayed an amyloid nucleation score of -0.013 ± 0.27.

On to RYILLVYVTCDRKVRAMKGV, for which the amyloid nucleation score stood at 0.883 ± 0.33.
